Measurements published in PMC12775136.

Target: UPF1-Hel (human)

extent of linear RNA substrate unwound by UPF1-Hel (fluorescence-based nucleic acid unwinding assay) with SLBPfl at equimolar amount to 3-fold molar excess; further decrease at 3-fold excess: 66%
Substance: full-length SLBP (SLBPfl) (from UniProt Q14493 1-270) (natural protein)
